# Results published in PMC12435805 (Nature Chemical Biology, 2025).
# Read-outs that look alike come from different tables or passages of the source.
# B1: truncated RECQL5 protein (11–453) (domain or fragment, UniProt O94762 11-453, looked up)
# chain: DPERRVRSTLKKVFGFDSFKTPLQESATMAVVKGNKDVFVCMPTGAGKSLCYQLPALLAKGITIVVSPLIALIQDQVDHLLTLKVRVSSLNSKLSAQERKELLADLEREKPQTKILYITPEMAASSSFQPTLNSLVSRHLLSYLVVDEAHCVSQWGHDFRPDYLRLGALRSRLGHAPCVALTATATPQVQEDVFAALHLKKPVAIFKTPCFRANLFYDVQFKELISDPYGNLKDFCLKALGQEADKGLSGCGIVYCRTREACEQLAIELSCRGVNAKAYHAGLKASERTLVQNDWMEEKVPVIVATISFGMGVDKANVRFVAHWNIAKSMAGYYQESGRAGRDGKPSWCRLYYSRNDRDQVSFLIRKEVAKLQEKRGNKASDKATIMAFDALVTFCEELGCRHAAIAKYFGDALPACAKGCDHCQNPTAVRRRLEALERSSSW
# notes: also called RECQ5; DNA helicase RECQL5
# Key:
# [1] = target: B1
# hen egg white lysozyme = hen egg white lysozyme (Gallus gallus, UniProt P00698)
# [2] = target: SARS-CoV-2 receptor-binding domain (RBD) (SARS-CoV-2, ancestral strain assumed, UniProt P0DTC2, glycans removed; complex for cryo-EM PEGylated with NHS-PEG4-azide)
# [3] = target: B1; test: BLI; settings: both partners purified
# [4] = target: T1, anti-RECQL5 homoDiGb5-006; test: BLI; settings: both partners purified
# T1 construct: also called homoDiGb Gb5-006
# superfolder GFP = target: T2, superfolder GFP (Aequorea victoria, engineered …, stabilised); test: BLI; settings: both partners purified
# T2 construct: also called sfGFP
# T2 sequence (P42212 other isoform, or with tags, fused parts or gaps, change not shown): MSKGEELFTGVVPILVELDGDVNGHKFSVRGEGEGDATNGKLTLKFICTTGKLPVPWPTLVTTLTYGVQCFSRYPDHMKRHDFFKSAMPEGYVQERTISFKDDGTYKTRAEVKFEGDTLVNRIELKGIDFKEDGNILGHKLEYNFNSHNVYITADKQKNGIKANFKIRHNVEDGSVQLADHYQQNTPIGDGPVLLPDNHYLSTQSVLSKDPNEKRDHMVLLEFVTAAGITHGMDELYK
# hen egg white lysozyme, sequence (P00698 19-147): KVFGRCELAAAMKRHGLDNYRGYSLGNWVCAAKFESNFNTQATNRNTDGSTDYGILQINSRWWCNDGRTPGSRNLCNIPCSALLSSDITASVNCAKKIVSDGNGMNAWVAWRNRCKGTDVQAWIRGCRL
binder,measurement,setting,value
Nb5-006 (VHH) VHH: VQLVENSGGGLVQAGGSLRLSCAASGSIFSINRMTWYRQAPGKEREWVAAITSGGSTNYADSVKGRFTISRDNAENTVYLQMNSLKPEDTAVYYCEAYGTYTLAPTGEGEYDDYWGQGTQVTVS,Kd,[1],1.2 µM
GbLysozyme (VHH) VHH: DVQLVENGGGCVKAGGSLRLSCAASGSTDSIEYMTWFRQAPGKAREGVAALYTHTGNTYYTDSVKGRFTISQDKAKNMAYLRMDSVKSEDTAIYTCGATRKYVPVRFALDQSSYDYWGQGTQVMVSS,binding result,hen egg white lysozyme,binds
GbRBD1 (VHH) VHH: QVQLVENGGGCVKAGGSLRLSCAVSGRTFSTAAMGWFRQAPGKEREFVAAIRWSGGSAYYADSVKGRFTISRDKAKNTVYLQMNSLKYEDTAVYYCAQTRVTRSLLSDYATWPYDYWGQGTQVMVS,binding result,[2],binds
"anti-RECQL5 wild-type nanobody (VHH, also called RECQL5 nanobody; anti-RECQL5 nanobody) VHH: QVQLVESGGGLVQAGGSLRLSCAASGSIFSINRMGWYRQAPGKQRELVAAITSGGSTNYADSVKGRFTISRDNAKNTVYLQMNSLKPEDTAIYYCEAYGTYTLAPTGEGEYDDYWGQGTQVTVS",Kd,[3],1.2 µM
"anti-RECQL5 monomeric Gb5-006 (VHH, also called G5-006; Gb equivalent) VHH: QVQLVENGGGCVKAGGSLRLSCAASGSIFSINRMTWYRQAPGKEREWVAAITSGGSTNYADSVKGRFTISRDNAENTVYLQMNSLKPEDTAVYYCEAYGTYTLAPTGEGEYDDYWGQGTQVMVS",Kd,[3],9 µM
B1,Kd,[4],23.4 µM
"anti-sfGFP monomeric GbEnhancer (VHH, also called GbGFP; sfGFP Gb) VHH: QVQLVENGGACVKPGGSLRLSCAASGFPVNRYSMRWYRQAPGKEREWVAGMSSAGDRSSYEDSVKGRFTISRDDARNTVYLQMNSLKPEDTAVYYCNVNVGFEYWGQGTQVMVS",Kd,superfolder GFP,0.005 µM
